Assay results taken from patent publication US20260049115A1 (UNIVERSITY OF CHICAGO, published 2026).
Each block holds one binder with its values, some of them ahead of it.

How the values were obtained:
[1] = molecular target: T1, collagen type I; assay: ELISA on plates coated with collagen I; apparent KD by nonlinear regression, one-site specific binding [panel C]
T1 construct: Bought protein; also called collagen I; type I collagen
Description: (§1) Detection of CBD-IL-2 binding to collagen proteins. The measurement is performed as described previously (Ishihara et al., Sci Transl Med 9:doi:10.1126/scitranslmed.aan0401, 2017). 96-well ELISA plates (Greiner Bio One) were coated with 10 μg/mL collagen I (EMD Millipore), collagen III (EMD Millipore), or 1 μg/mL recombinant mouse IL-2Rα (SinoBiological) in PBS for 1 h at 37° C., followed by blocking with 2% BSA in PBS with 0.05% Tween 20 (PBS-T) for 1 hr at RT. Then, wells were washed with PBS-T and further incubated with 10 μg/mL CBD- or unmodified-IL-2 for 1 hr at RT. After 3 washes with PBS-T, wells were incubated for 1 hr at RT with HRP-conjugated antibody against rat IgG (Jackson ImmunoResearch). After washes, bound CBD-IL2 and IL-2 were detected with tetramethylbenzidine substrate by measurement of the absorbance at 450 nm with subtraction of 570 nm. The apparent dissociation constant (KD) values were obtained by nonlinear regression analysis in Prism software (v7, GraphPad Software) assuming one-site specific binding.

[2] = molecular target: T2, collagen type III; assay: ELISA on plates coated with collagen III; apparent KD by nonlinear regression, one-site specific binding [panel C]
T2 construct: Bought protein; also called collagen III; type III collagen
Description: as §1

[3] = molecular target: T3, recombinant mouse IL-2Rα (mouse, UniProt P01590 22-236, limits assumed); assay: ELISA on plates coated with recombinant mouse IL-2Rα; apparent KD by nonlinear regression, one-site specific binding [panel C]
T3 construct: Bought recombinant protein; also called rm IL-2Rα
T3 sequence (looked up): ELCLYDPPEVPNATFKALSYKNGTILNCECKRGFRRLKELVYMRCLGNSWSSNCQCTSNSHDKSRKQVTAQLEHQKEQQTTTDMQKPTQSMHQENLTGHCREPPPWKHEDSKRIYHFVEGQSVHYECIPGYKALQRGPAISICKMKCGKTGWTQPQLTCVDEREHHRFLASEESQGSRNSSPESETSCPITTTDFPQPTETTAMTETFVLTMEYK
Description: as §1

[4] = molecular target: CCR5 on ThP1 human monocytes (human, UniProt P51681 1-352); assay: cell-based or functional assay
[5] = molecular target: T1, collagen type I; assay: SPR (Biacore X100), collagen I on CM5 chip, 1:1 Langmuir fit
Description: (§2) FIGS. 6A-6D. CBD-CCL4 fusion protein binds to collagen I and collagen III and maintains its activity. (A) WT CCL4 and CBD-CCL4 were analyzed by SDS-PAGE followed by Coomassie blue staining. (B,C) Affinity of CBD-CCL4 against (B) collagen I and (C) collagen III was measured by SPR. SPR chips were functionalized with collagen I (˜500 RU) and collagen III (˜700 RU), and the CBD-CCL4 was flowed over the chips at indicated concentrations. Curves represent the obtained specific responses (in resonance units (RU)) to CBD-CCL4. Experimental curves were fitted with 1:1 Langmuir fit model. Binding kinetics values [dissociation constants (KD) and rate constants (kₒₙ and koff)] determined from the fitted curves are shown. (D) GPCR activation assay comparing signaling of WT CCL4 and CBD-CCL4 in ThP1 monocytes. EC₅₀ values were calculated using a non-linear dose-response curve fit model. Each point represents mean±SEM, n=3.
(§3) CBD-CCL4 collagen binding measurements using SPR. SPR measurements were made with a Biacore X100 SPR system™ (GE Healthcare). Collagen I or collagen III was immobilized via amine coupling on a CM5 chip (GE Healthcare) for ˜1000 resonance units (RU) according to the manufacturer's instructions. […] Specific binding of CBD-CCL4 to collagen was calculated automatically using the response to a non-functionalized channel as a reference. […]

[6] = molecular target: T2, collagen type III; assay: SPR (Biacore X100), collagen III on CM5 chip, 1:1 Langmuir fit
Description: as §2, §3

[7] = molecular target: T1, collagen type I; assay: SPR, collagen I immobilised on the chip, CBD-CCL4 flowed at 15.6 to 500 nM, 1:1 Langmuir fit [panel B]
Description: as §2, §3

[8] = molecular target: T2, collagen type III; assay: SPR, collagen III immobilised on the chip, CBD-CCL4 flowed at 15.6 to 500 nM, 1:1 Langmuir fit [panel C]
Description: as §2, §3

T2 sequence (P02461 154-1221): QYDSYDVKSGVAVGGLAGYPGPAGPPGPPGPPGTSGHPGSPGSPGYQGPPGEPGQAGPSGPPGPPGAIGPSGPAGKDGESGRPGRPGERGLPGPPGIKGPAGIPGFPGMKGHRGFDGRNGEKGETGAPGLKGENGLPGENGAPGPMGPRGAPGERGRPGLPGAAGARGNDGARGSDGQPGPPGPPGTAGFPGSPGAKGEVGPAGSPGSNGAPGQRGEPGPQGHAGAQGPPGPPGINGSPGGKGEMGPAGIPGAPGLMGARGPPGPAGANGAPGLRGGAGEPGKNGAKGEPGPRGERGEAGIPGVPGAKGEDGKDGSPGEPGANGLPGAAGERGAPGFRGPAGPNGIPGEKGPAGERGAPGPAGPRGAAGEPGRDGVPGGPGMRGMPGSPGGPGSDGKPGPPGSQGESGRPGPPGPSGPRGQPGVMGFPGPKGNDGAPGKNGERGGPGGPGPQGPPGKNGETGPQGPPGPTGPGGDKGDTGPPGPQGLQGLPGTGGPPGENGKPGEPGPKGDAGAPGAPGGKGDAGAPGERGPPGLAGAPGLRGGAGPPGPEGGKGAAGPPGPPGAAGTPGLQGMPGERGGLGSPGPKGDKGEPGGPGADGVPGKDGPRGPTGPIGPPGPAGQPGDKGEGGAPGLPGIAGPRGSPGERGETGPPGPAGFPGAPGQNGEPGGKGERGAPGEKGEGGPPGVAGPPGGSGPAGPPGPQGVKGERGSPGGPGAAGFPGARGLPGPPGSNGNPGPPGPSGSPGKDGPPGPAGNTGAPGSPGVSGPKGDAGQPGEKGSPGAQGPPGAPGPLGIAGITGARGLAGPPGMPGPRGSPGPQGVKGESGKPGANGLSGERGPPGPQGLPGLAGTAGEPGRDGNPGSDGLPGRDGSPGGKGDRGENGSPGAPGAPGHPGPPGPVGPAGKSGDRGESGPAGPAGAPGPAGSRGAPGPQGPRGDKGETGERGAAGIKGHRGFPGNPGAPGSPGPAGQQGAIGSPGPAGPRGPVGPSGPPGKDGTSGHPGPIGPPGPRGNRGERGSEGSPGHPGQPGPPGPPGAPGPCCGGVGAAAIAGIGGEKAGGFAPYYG
Sequence of CCR5 on ThP1 human monocytes (P51681 whole entry): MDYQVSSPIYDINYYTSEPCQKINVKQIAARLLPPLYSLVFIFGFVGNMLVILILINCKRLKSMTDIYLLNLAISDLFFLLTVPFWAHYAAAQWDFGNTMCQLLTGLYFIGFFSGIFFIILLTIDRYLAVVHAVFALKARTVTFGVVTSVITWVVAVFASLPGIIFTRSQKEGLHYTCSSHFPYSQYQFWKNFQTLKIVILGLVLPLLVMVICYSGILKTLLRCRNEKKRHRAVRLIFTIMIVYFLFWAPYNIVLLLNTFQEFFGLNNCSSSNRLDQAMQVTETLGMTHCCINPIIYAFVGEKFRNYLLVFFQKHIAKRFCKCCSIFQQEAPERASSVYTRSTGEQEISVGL

Kd [1]: 268 nM | Kd [2]: 181 nM | Kd [3]: 54.7 nM
B1: CBD-fused IL-2 recombinant protein (the vWF A3 domain and mouse IL-2 fusion protein) (other)
chain: CSQPLDVILLLDGSSSFPASYFDEMKSFAKAFISKANIGPRLTQVSVLQYGSITTIDVPWNVVPEKAHLLSLVDVMQREGGPSQIGDALGFAVRYLTSEMHGARPGASKAVVILVTDVSVDSVDAAADAARSNRVTVFPIGIGDRYDAAQLRILAGPAGDSNVVKLQRIEDLPTMVTLGNSFLHKLCSGFVRIGGGSGGGSPTSSSTSSSTAEAQQQQQQQQQQQQHLEQLLMDLQELLSRMENYRNLKLPRMLTFKFYLPKQATELKDLQCLEDELGPLRHVLDLTQSKSFQLEDAENFISNIRVTVVKLKGSDNTFECQFDDESATVVDFLRRWIAFCQSIISTSPQ
notes: also called CBD-IL-2

Kd [3]: 60 nM
B2: wild-type mouse IL-2 (His-tagged) (ligand)
chain: PTSSSTSSSTAEAQQQQQQQQQQQQHLEQLLMDLQELLSRMENYRNLKLPRMLTFKFYLPKQATELKDLQCLEDELGPLRHVLDLTQSKSFQLEDAENFISNIRVTVVKLKGSDNTFECQFDDESATVVDFLRRWIAFCQSIISTSPQ
notes: The entry includes the C-terminal 6xHis tag as printed; also called wild-type IL-2; unmodified-IL-2

EC50, calcium flux (RFU) in ThP1 monocytes [panel D] [4]: 7 nM | Kd [5]: 33.4 nM | Kd [6]: 14.5 nM | koff [7]: 0.0031 s⁻¹ | kon [7]: 95000 M⁻¹ s⁻¹ | koff [8]: 0.0078 s⁻¹ | kon [8]: 540000 M⁻¹ s⁻¹
B3: CBD-CCL4 (human vWF A3 domain and murine CCL4 fusion protein) (other)
chain: CSQPLDVILLLDGSSSFPASYFDEMKSFAKAFISKANIGPRLTQVSVLQYGSITTIDVPWNVVPEKAHLLSLVDVMQREGGPSQIGDALGFAVRYLTSEMHGARPGASKAVVILVTDVSVDSVDAAADAARSNRVTVFPIGIGDRYDAAQLRILAGPAGDSNVVKLQRIEDLPTMVTLGNSFLHKLCSGFVRIGGGGSGGGGSAPMGSDPPTSCCFSYTSRQLHRSFVMDYYETSSLCSKPAVVFLTKRGRQICANPSEPWVTEYMSDLELNHHHHHH
notes: also called CBD-CCL4 fusion protein; vWF A3 domain-CCL4 fusion protein
